Data published in patent US20180312588A1 (KITE PHARMA, published 2018).

T1: human CD19 (on Raji cells, CD19+ homo sapiens Burkitt's lymphoma) (human, UniProt P15391 20-556)
T1 construct: whole, on cells; also called B-lymphocyte antigen CD19; B4
T1 sequence (looked up): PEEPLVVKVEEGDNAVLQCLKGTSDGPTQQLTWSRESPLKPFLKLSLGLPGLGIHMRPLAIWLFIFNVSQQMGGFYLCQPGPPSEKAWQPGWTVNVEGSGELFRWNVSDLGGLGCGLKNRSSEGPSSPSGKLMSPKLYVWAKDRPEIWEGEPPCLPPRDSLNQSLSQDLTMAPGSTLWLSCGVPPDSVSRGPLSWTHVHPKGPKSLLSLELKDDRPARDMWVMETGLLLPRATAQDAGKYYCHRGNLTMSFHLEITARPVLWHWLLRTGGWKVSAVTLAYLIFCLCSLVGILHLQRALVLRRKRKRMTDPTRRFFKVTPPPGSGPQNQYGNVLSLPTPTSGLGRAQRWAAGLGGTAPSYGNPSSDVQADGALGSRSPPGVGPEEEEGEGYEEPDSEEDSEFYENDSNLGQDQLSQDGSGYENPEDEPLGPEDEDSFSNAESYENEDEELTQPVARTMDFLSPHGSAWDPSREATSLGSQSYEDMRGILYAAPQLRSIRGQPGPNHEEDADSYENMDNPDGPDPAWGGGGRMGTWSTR

B1: SS-scFv (scFv)
scFv: DIQMTQSPSFLSASVGDRVTITCRASQDISKYLNWYQQKPDQAPKLLIKHTSRLHSGVPSRFSGSGSGTDFTFTISSLQPEDIATYYCQQGNTLPYTFGQGTKLEIKGSTSGSGKPGSGEGSTKGEVQLVESGGGLVQPGRSLRLSCTASGVSLPDYGVSWVRQPPGKGLEWIGVIWGSETTYYNSALKSRFTISRDNSKNTLYLQMNSLRAEDTAVYYCAKHYYYGGSYAMDYWGQGTLVTVSSHHHHHH
notes: leader left out here
B2: JS-scFv (scFv)
scFv: DIQMTQSPSSLSASVGDRVTITCRASQDISKYLNWYQQKPDQAPKLLIKHTSRLHSGVPSRFSGSGSGTDYTLTISSLQPEDFATYYCQQGNTLPYTFGQGTKLEIKGSTSGSGKPGSGEGSTKGEVQLVESGGGLVQPGRSLRLSCTASGVSLPDYGVSWIRQPPGKGLEWIGVIWGSETTYYNSALKSRFTISRDNSKNTLYLQMNSLRAEDTAVYYCAKHYYYGGSYAMDYWGQGTLVTVSSHHHHHH
notes: leader left out here
B3: AS-scFv (scFv)
scFv: DIQMTQSPSTLSASVGDRVTITCRASQDISKYLNWYQQKPDQAPKLLIKHTSRLHSGVPSRFSGSGSGTDFTFTISSLQPEDIATYYCQQGNTLPYTFGQGTKLEIKGSTSGSGKPGSGEGSTKGQVQLQESGPGLVKPSGTLSLTCAVSGVSLPDYGVSWIRQPPGKGLEWIGVIWGSETTYYNSALKSRVTISRDNSKNTLYLQMNSLRAEDTAVYYCAKHYYYGGSYAMDYWGQGTLVTVSSHHHHHH
notes: leader left out here
B4: NS-scFv (scFv)
scFv: DIQMTQSPSSLSASVGDRVTITCRASQDISKYLNWYQQKPGKAVKLLIYHTSRLHSGVPSRFSGSGSGTDYTLTISSLQPEDIATYFCQQGNTLPYTFGGGTKLEIKGSTSGSGKPGSGEGSTKGQVQLQESGPGLVKPSETLSVTCTVSGVSLPDYGVSWIRQPPGKGLEWLGVIWGSETTYYNSALKSRLTISKDTSKNQVFLKMSSLTAADTAIYYCAKHYYYGGSYAMDYWGQGTLVTVSSHHHHHH
notes: leader left out here

Experiments:
[1] = molecular target: T1, human CD19 (on Raji cells, CD19+ homo …); experiment: flow cytometry titration on Raji cells, anti-His FITC; scFv at log(nM) 0.137273
Method: (§1) In brief, Raji cells were cultured and harvested by centrifugation. About 3×10⁵ cells per well were washed with PBS twice and incubated in 200 μl of serial dilutions of scFvs for 30 minutes at 4° C. After washing with PBS, secondary antibody (5 μg/ml His Tag antibody [FITC]) was added to the cells and incubated for 30 minutes at 4° C. After washing with PBS, cells were analyzed for binding EC50 by using FACSCalibur™ and FlowJo software.

[2] = molecular target: T1, human CD19 (on Raji cells, CD19+ homo …); experiment: flow cytometry titration on Raji cells, anti-His FITC; scFv at log(nM) 0.614394
Method: as §1

[3] = molecular target: T1, human CD19 (on Raji cells, CD19+ homo …); experiment: flow cytometry titration on Raji cells, anti-His FITC; scFv at log(nM) 1.091515
Method: as §1

[4] = molecular target: T1, human CD19 (on Raji cells, CD19+ homo …); experiment: flow cytometry titration on Raji cells, anti-His FITC; scFv at log(nM) 3.477121
Method: as §1

[5] = molecular target: T1, human CD19 (on Raji cells, CD19+ homo …); experiment: flow cytometry titration on Raji cells, anti-His FITC; scFv at log(nM) 2.045758
Method: as §1

[6] = molecular target: T1, human CD19 (on Raji cells, CD19+ homo …); experiment: flow cytometry titration on Raji cells, anti-His FITC; scFv at log(nM) 1.568636
Method: as §1

[7] = molecular target: T1, human CD19 (on Raji cells, CD19+ homo …); experiment: flow cytometry titration on Raji cells, anti-His FITC
Method: as §1

[8] = molecular target: T1, human CD19 (on Raji cells, CD19+ homo …); experiment: flow cytometry titration on Raji cells, anti-His FITC; scFv at log(nM) 2.522879
Method: as §1

[9] = molecular target: T1, human CD19 (on Raji cells, CD19+ homo …); experiment: flow cytometry titration on Raji cells, anti-His FITC; scFv at log(nM) 3
Method: as §1

Binder | geometric mean (FACS titration) [1] | geometric mean (FACS titration) [2] | geometric mean (FACS titration) [3] | geometric mean (FACS titration) [4] | geometric mean (FACS titration) [5] | geometric mean (FACS titration) [6] | EC50 [7] | geometric mean (FACS titration) [8] | geometric mean (FACS titration) [9]
B1 | 13.9 | 13.9 | 14.6 | 62 | 51.4 | 19.3 | 72.8 nM | 60.4 | 61.7
B2 | 13.4 | 13.3 | 13.6 | 60.2 | 46.6 | 25.7 | 66 nM | 58.9 | 59.7
B3 | 14.2 | 14 | 14.5 | 62.7 | 62.4 | 19.4 | 53.1 nM | 63.9 | 62.4
B4 | 15.7 | 15.5 | 15.1 | 60.7 | 56.3 | 41.2 | 34 nM | 61.6 | 61.9
